# Measured values published in US8598081B2, “Specific delivery of agrochemicals” (priority 2010, dated 2013).
# B1: VHH 3E6: VHH binding gum arabic, potato lectin and leaf surface; SEQ ID NO:7 by order of the list (protein, listed as Lama glama)
# VHH: QVQLQESGGGLVQPGGTLSLSCAASGFNVRWYGMGWFRQAPGKEREGVACISALQETTAYADSVKGRFTLSRDNPKNTLSLQMNNLQPEDTGVYYCATTDCDDSSRMTYTSYLGQGTQVTVSS
# modifications: 3E6
# B2: Microcapsules containing uvitex OB VHH 3E6: polyurea microcapsules containing the fluorescent tracer Uvitex OB, coupled with (monovalent) VHH 3E6 (conjugate)
# VHH: QVQLQESGGGLVQPGGTLSLSCAASGFNVRWYGMGWFRQAPGKEREGVACISALQETTAYADSVKGRFTLSRDNPKNTLSLQMNNLQPEDTGVYYCATTDCDDSSRMTYTSYLGQGTQVTVSS
# modifications: left off: small tags and cut ends
# notes: polyurea microcapsules containing the fluorescent tracer Uvitex OB, coupled with (monovalent) VHH 3E6
# What was measured:
# potato leaf discs = assay: VHH binding at different pH, leaf dip experiment; set-up: species or system potato (variety Desiree); conditions: whole range tested from pH 2 to pH 11; 5 μg/ml; 1 hour
# Experimental: In order to test applicability of VHH as binders for greenhouse or field applications where binding supposedly may occur at pH-values, deviating strongly from physiological conditions in which antibodies naturally bind their targets, a leaf dip VHH binding experiment was carried out in a series of solutions with different pH. The following solutions were prepared: 50 mM glycine pH 2.0, 50 mM sodium acetate pH 4.0, 50 mm sodium carbonate pH 9.6, and 10 mM sodium hydroxide pH […] 8 mm potato leaf discs (variety Desiree) were cut using a puncher tool. The leaf discs were first equilibrated to the different pH by washing three times with solutions at different pH. Hexahistidine-tagged VHH were diluted to 5 μg/ml in solutions with different pH, added to the corresponding equilibrated leaf discs, and binding of VHH was allowed for 1 hour. After incubation with VHH, leaf discs were washed three times with solutions at the corresponding different pH. After that, all were washed two times with PBS to equilibrate leaf discs to PBS. Bound VHH were detected by incubation with monoclonal mouse anti-histidine antibodies directly conjugated with Alexa-488 fluorescent dye (Abd Serotec) in PBS for 1 hour. Unbound anti-histidine antibodies were removed by washing five times with PBS. Leaf discs were analyzed for bound VHH with microscopy.
# azalea leaf discs = assay: Leaf disc binding assay with VHH-coupled microcapsules, azalea; conditions: Uvitex microcapsules
# Experimental: A leaf disc binding assay was used to evaluate the interaction of VHH-coupled microcapsules with potato, grass and azalea leaves. ø 8 mm leaf discs were sampled from the leaves of potato pot plants (variety Desiree), from the leaves of greenhouse-grown Lollium perenne and from the leaves of azalea pot plants. Leaf discs were washed three times with PBS. Microcapsules containing lambda cyhalothrin or Uvitex were diluted to appropriate densities in 1% skimmed milk in PBS with 0.05%-TWEEN®-20. Microcapsules were added to the leaf discs and settling of microcapsules and binding of targeting agents allowed for 1 hour. Unbound microcapsules were removed by washing three to five times with PBS with 0.05%-TWEEN®-20.
# Leaf discs with Uvitex microcapsules were analyzed for bound microcapsules on a macrozoom microscope system (Nikon). Microcapsules were counted using Volocity image analysis software (Perkin Elmer). A DAPI filter was used to visualize Uvitex microcapsules. Controls for Uvitex microcapsules included blank microcapsules to which no VHH were coupled and microcapsules to which unrelated VHH were coupled.
# [1] = ELISA-like assay, microcapsules with monovalent or bivalent VHH, unrelated antigen; type: binding; set-up: unit not given beside the values; conditions: Uvitex microcapsules
# From the text: Bivalent VHH constructs were produced in bacteria by cloning two VHH sequences in tandem into the pASF22 vector, creating a fusion of two VHH with a 9 glycine-serine linker (GGGGSGGGS (SEQ ID NO:50)) in between the two VHH. pASF22 is an in-house produced pMES derivative. The tags that were used were C-terminal c-Myc (EQKLISEEDLN (SEQ ID NO:51)) and hexahistidine (HHHHHH (SEQ ID NO:52)). A triple alanine linker (AAA) was placed in between the C-terminal end of the VHH and the c-Myc tag and a glycine-alanine-alanine (GAA) linker was used in between the C-terminal end of the c-Myc tag and the hexahistidine tag. The complete sequence C-terminal of the bivalent VHH that was used: AAA-EQKLISEEDLN-GAA-HHHHHH (SEQ ID NO:53). Fresh overnight cultures were produced by starting from colony streaks and inoculation of 2×TY media supplemented with 2% glucose and 100 μg/ml ampicillin. The overnight cultures were used to inoculate fresh cultures 1:100 in 2×TY media with 0.1% glucose and 100 μg/ml ampicillin. After growing at 37° C. in a shaking incubator for 3 hours, IPTG was added to a 1 mM final concentration and recombinant bivalent VHH were produced during an additional incubation for 4 hours. Cells were spun down and resuspended in 1/50th of the original culture volume of PBS and incubated with head-over-head rotation at 4° C. for 30 minutes. Spheroplasts were spun down by centrifugation at 3,000 g and 4° C. for 20 minutes. Supernatants were transferred to fresh tubes and centrifuged again at 3,000 g and 4° C. for 20 minutes. The supernatant was collected and sodium chloride concentration was adjusted to 500 mM and imidazole concentration to 20 mM. Hexahistidine-tagged bivalent VHH were purified from the extracts using HisTrap FF Crude 5 ml IMAC columns (GE Lifesciences) and HiLoad 16/60 Superdex 75 prep grade gel filtration column (GE Lifesciences) on an AKTAxpress system (GE Lifesciences) following standard procedures.
# Next, it was investigated if binding of microcapsules to surfaces could be improved by using targeting agents comprising multivalent VHH. A series of parallel couplings was performed with equal amounts of monovalent VHH, bivalent VHH, and unrelated VHH. Success of coupling of VHH and multivalent VHH were analyzed as described in Example 4. An ELISA-like assay was performed using high bind half area microplates (Greiner Bio-One) coated with 5 μg/well potato lectin. Control wells included blank wells or wells coated with unrelated antigens. Plates were washed three times with PBS with 0.05%-TWEEN®-20 and blocked with 5% skimmed milk in PBS for 1 to 2 hours. VHH-coupled Uvitex-containing microcapsules were diluted to appropriate densities in 1% skimmed milk in PBS with 0.05%-TWEEN®-20. Five-fold serial dilution series were prepared and allowed to bind to the surface to compare binding of microcapsules coupled with monovalent or bivalent VHH. Microcapsules were added to the antigen-coated or control wells and allowed to bind for 1 hour. Unbound microcapsules were removed by washing five times with PBS with 0.05%-TWEEN®-20. The bottoms of ELISA plate wells were analyzed for bound microcapsules on a macrozoom microscope system (Nikon). Microcapsules were counted using Volocity image analysis software (Perkin Elmer). A DAPI filter was used to visualize Uvitex microcapsules. […] The surface area of microcapsules with coupled bivalent VHH was 15-fold above the surface area of blank microcapsules applied at this microcapsule density while the surface area of microcapsules with monovalent VHH was only six-fold above the surface area of blank microcapsules applied at this microcapsule density. This difference could be explained by an increase in binding strength due to additional avidity of the bivalent VHH compared to monovalent VHH, it could also be that the use of bivalent VHH increases flexibility and spacer length of the coupled targeting agents on microcapsules, or a combination of both.
Molecule,binding to leaf discs at different pH (potato leaf discs),specific binding of microcapsules to azalea leaf discs (azalea leaf discs),"Surface area of bound microcapsules ([1]; no coating (second series, with unrelated antigen rows), surface coverage 100%)","Surface area of bound microcapsules ([1]; unrelated antigen, surface coverage 4%)","Surface area of bound microcapsules ([1]; unrelated antigen, surface coverage 20%)","Surface area of bound microcapsules ([1]; unrelated antigen, surface coverage 100%)"
B1,detectable binding,,,,,
B2,,no specific binding,72.036,5.011,27.742,69.503
